Assay results taken from patent US20090240036A1 (Eli Lilly, published 2009).
Numbering of substitutions follows the chain as printed. Blank lines part the entries; values can stand above or below the molecule they belong to.

Legend:
[1] = biological target: Human IL-23 (heterodimer of p19 and p40 subunits) (human) (UniProt P29460); assay: cell-based or functional assay
[2] = biological target: Human IL-23 (heterodimer of p19 and p40 subunits) (human) (UniProt P29460); assay: BIAcore SPR, antibody captured on protein A, human IL-23 flowed, HBS-EP pH 7.4, 25 C
[3] = biological target: T1, Human IL-23 (heterodimer of p19 and p40 subunits) (human, UniProt P29460 23-328); assay: cell-based or functional assay
T1 sequence 1: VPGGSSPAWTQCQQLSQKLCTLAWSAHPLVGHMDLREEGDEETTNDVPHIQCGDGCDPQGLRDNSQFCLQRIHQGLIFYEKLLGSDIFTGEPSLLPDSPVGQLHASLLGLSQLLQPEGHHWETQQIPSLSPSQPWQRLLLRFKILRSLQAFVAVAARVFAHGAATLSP
T1 sequence 2: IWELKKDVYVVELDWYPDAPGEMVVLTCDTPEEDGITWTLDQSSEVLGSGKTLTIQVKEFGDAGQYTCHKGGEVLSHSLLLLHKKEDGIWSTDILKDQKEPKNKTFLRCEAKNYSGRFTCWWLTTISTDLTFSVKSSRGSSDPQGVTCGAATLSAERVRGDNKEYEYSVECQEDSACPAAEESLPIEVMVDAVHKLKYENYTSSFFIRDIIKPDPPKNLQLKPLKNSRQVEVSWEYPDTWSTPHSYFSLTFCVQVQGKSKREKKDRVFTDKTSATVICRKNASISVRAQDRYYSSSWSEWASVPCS

[4] = biological target: T1, Human IL-23 (heterodimer of p19 and p40 …); assay: BIAcore SPR, antibody captured on protein A, human IL-23 flowed, HBS-EP pH 7.4, 25 C
Protocol: Affinities of MAb3A8 and antibodies of the present invention are determined using BIAcore measurements (Table 3). BIAcore™ is an automated biosensor system that measures molecular interactions. (Karlsson, et al. (1991) J. Immunol. Methods 145: 229-240). In these experiments antibody is captured to a surface at low density on a BIAcore™ chip. Ethyl-dimethylaminopropyl-carbodiimide (EDC) is used to couple reactive amino groups to protein A to a flow cell of a carboxy-methyl (CM5) BIAcore™ sensor chip. Protein A is diluted in sodium acetate buffer, pH 4.5, and immobilized on a flow cell of a CM5 chip using EDC to yield 1000 response units. Unreacted sites are blocked with ethanolamine. A flow rate of 60 μl/min is used. Multiple binding/elution cycles are performed by injection a 10 μl solution of 2 μg/mL of the antibodies of the present invention. followed by human IL-23 at decreasing concentrations for each cycle (e.g. 1500, 750, 375, 188, 94, 47, 23.5, 12, and 0 picomolar). Elution is performed with glycine-HCl, pH 1.5. BIAevaluation™ is used to analyze the kinetic data.

IC50 Measured in the Murine Splenocyte Assay [1]: 2.8 nM
Kd [2]: 21.4 nM
koff [2]: 0.000768 s⁻¹
kon [2]: 36800 M⁻¹ s⁻¹
Molecule: MAB1290, anti-human IL-23 monoclonal antibody, murine (R&D Systems)

IC50 Measured in the Murine Splenocyte Assay [3]: 0.002 nM
Kd [4]: 0.074 nM
koff [4]: 0.000115 s⁻¹
kon [4]: 1.55e+06 M⁻¹ s⁻¹
B1: MAbQF20 (antibody, human IgG1, kappa, V domains shown)
VH: QVQLVQSGAEVKKPGASVKVSCKVSGKTFWSYGINWVRQAPGKGLEWMGYIYIGTGYTEPNPKYKGRVTMTEDTSTDTAYMELSSLRSEDTAVYYCATIGGYYGNFADWGQGTTVTVSS
VL: DVVMTQSPLSLPVTLGQPASISCRSSQSLLISGGKTYLNWFQQRPGQSPRRLIYLVSKLDQGVPDRFSGSGSGTDFTLKISRVEAEDVGVYYCWQGTYFPLTFGQGTKLEIKR
notes: Humanized antibody derived from MAb3A8

IC50 Measured in the Murine Splenocyte Assay [3]: 0.002 nM
Kd [4]: 0.098 nM
koff [4]: 0.000153 s⁻¹
kon [4]: 1.55e+06 M⁻¹ s⁻¹
B2: MAbQF37 (antibody, human IgG1, kappa, V domains shown)
VH: B1 VH with A107D, D108Q
VL: B1 VL
notes: as for B1
